# Source: patent publication US5693502
# What was measured:
# [1] = biological target: Taq DNA polymerase (rTaq) (Thermus aquaticus) (UniProt P19821); experiment: FP_none
# [2] = biological target: Tth DNA polymerase (rTth) (Thermus thermophilus) (UniProt P52028); experiment: filter
# [3] = biological target: Taq DNA polymerase (rTaq) (Thermus aquaticus) (UniProt P19821); experiment: filter; conditions: room temperature
# Tth DNA polymerase (rTth) (Thermus thermophilus), sequence (P52028 whole entry): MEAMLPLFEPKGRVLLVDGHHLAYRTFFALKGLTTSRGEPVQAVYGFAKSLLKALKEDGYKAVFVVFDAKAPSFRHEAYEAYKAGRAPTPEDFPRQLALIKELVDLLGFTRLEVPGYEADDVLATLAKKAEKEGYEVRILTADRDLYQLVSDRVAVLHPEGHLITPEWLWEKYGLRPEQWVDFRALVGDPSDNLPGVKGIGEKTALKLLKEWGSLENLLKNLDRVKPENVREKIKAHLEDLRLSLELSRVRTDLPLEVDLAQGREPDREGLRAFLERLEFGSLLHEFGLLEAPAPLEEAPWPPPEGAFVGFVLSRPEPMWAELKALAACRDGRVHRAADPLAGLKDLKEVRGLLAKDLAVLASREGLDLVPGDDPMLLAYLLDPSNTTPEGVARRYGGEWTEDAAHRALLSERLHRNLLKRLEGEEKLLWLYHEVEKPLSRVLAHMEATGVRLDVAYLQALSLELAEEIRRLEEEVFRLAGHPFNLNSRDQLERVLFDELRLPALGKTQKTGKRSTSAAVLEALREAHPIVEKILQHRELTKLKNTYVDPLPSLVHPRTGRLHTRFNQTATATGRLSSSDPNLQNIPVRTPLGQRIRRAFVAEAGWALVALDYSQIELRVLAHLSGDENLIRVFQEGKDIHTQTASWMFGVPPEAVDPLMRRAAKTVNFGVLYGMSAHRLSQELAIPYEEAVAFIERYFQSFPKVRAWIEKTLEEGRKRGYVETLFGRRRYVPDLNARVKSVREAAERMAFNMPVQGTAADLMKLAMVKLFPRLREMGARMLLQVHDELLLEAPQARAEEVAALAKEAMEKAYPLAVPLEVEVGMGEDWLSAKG
# Taq DNA polymerase (rTaq) (Thermus aquaticus), sequence (P19821 whole entry): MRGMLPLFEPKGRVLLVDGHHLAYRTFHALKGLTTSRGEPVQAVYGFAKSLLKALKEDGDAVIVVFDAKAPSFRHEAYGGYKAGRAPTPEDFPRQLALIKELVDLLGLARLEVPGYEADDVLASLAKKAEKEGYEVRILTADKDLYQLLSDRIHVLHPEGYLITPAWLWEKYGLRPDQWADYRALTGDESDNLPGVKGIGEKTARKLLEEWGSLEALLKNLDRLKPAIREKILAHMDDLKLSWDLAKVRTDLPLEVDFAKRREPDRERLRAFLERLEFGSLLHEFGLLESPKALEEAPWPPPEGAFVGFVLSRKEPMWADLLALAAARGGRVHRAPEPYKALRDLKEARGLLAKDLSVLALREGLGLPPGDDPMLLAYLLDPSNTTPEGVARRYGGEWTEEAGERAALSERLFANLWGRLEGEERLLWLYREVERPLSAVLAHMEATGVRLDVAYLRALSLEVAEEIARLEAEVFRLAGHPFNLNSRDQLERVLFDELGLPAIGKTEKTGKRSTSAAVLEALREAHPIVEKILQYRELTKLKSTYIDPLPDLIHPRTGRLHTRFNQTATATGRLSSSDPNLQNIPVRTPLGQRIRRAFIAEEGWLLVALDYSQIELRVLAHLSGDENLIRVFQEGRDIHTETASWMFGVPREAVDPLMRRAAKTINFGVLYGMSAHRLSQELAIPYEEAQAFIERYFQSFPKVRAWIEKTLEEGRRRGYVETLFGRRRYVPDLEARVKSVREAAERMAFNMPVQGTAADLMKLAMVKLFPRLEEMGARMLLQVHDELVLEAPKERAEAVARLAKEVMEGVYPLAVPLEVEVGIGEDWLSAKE
sequence,measurement,setting,value
TTCTCGGTTGGTCTCTGGCGGAGCNNNNNNNNNNNNNNNNNNNNNNNNNNNNNNTCTTGTGTATGATTCGCTTTTCCC [Taq-enriched ssDNA pool (round 12)],Kd,[1],3.5 nM
same,Kd,"[2]; cross binding of Taq-selected pool, room temperature",0.2 nM
TTCTCGGTTGGTCTCTGGCGGAGCNNNNNNNNNNNNNNNNNNNNNNNNNNNNNNTCTTGTGTATGATTCGCTTTTCCC [Tth-enriched ssDNA pool (round 10)],Kd,"[3]; cross binding of Tth-selected pool, saturates at about 50%, about half of pool not interacting",0.3 nM
same,Kd,"[2]; 50 mM Bicine-KOH pH 8.3, 90 mM KCl, 3.5 mM Mn(OAc)2, tRNA, 0.01% hSA, room temperature",5 nM
TTCTCGGTTGGTCTCTGGCGGAGCNNNNNNNNNNNNNNNNNNNNNNNNNNNNNNTCTTGTGTATGATTCGCTTTTCCC [unselected random 30N ssDNA pool],Kd,"[3]; unselected pool, 10 mM Tris-HCl pH 8.3, 50 mM KCl, 2.5 mM MgCl2, tRNA, 0.01% hSA",> 50 nM
same,Kd,"[2]; unselected pool, Bicine-KOH pH 8.3, 90 mM KCl, 3.5 mM Mn(OAc)2, room temperature",70 nM
